Experimental data as given in patent US5629176A, “Human Kunitz-type protease inhibitor variants” (Novo Nordisk A/S, priority 1994, dated 1997).

Legend:
[1] = molecular target: Porcine trypsin (porcine) (UniProt P00761); assay: inhibition of the proteinase, 30 minutes preincubation, residual activity on a peptidyl nitroanilide substrate at 405 nm
collagenase = details: cited from earlier work
[2] = molecular target: T1, Human neutrophil elastase (Homo sapiens, UniProt P08246); assay: Inhibition of serine proteinases: neutrophil elastase, peptidyl nitroanilide substrate; type: biochemical; details: 30 minutes incubation, substrate 0.6 mM, 405 nm
T1 construct: Human neutrophil cathepsin G and elastase were purified from extracts of PMNs; from tissue; host or cells: human polymorphonuclear leukocytes (PMNs)
T1 sequence (P08246 30-267): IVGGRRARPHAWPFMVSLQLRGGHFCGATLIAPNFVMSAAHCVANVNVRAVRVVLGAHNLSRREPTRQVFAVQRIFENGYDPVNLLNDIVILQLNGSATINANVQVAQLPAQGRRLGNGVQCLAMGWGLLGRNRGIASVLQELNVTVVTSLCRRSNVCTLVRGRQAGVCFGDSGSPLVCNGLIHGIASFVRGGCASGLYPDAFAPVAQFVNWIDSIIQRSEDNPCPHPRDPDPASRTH
Method: (§1) The variants were purified from the yeast culture medium as described in example 1. The concentration of KFN 1651 was determined from the absorbance at 214 nm using aprotinin as a standard. Porcine trypsin was obtained from Novo Nordisk A/S. Human plasmin was obtained from Kabi (Stockholm, Sweden). Human neutrophil cathepsin G and elastase were purified from extracts of PMNs according to the method described by Baugh and Travis, Biochemistry 15, 1976, 836-843.
(§2) Peptidyl nitroanilide substrates S2251 ans S2586 were obtained from Kabi (Stockholm, Sweden), and S7388 and M 4765 were obtained from Sigma Chemical Co. (St. Louis, Mo., USA).
(§3) The serine proteinases were incubated with various concentrations of KFN 1900 or 1901 for 30 minutes. Substrate was then added (0.6 mM) and residual proteinase activity was measured at 405 nm.

Porcine trypsin = molecular target: T2, Porcine trypsin (Sus scrofa, UniProt P00761); assay: Inhibition of serine proteinases: trypsin, peptidyl nitroanilide substrate; type: biochemical; details: 30 minutes incubation, substrate 0.6 mM, residual activity at 405 nm
T2 construct: purchased Novo Nordisk A/S
Method: as §1, §2, §3

Human plasmin = molecular target: T3, Human plasmin (Homo sapiens, UniProt P00747); assay: Inhibition of serine proteinases: plasmin, peptidyl nitroanilide substrate; type: biochemical; details: at 1 μM; 30 minutes incubation, substrate 0.6 mM, 405 nm
T3 construct: purchased Kabi (Stockholm, Sweden)
Method: as §1, §2, §3

[3] = molecular target: T4, Human neutrophil cathepsin G (Homo sapiens, UniProt P08311); assay: Inhibition of serine proteinases: cathepsin G, peptidyl nitroanilide substrate; type: biochemical; details: 30 minutes incubation, substrate 0.6 mM, 405 nm
T4 construct: Human neutrophil cathepsin G and elastase were purified from extracts of PMNs; from tissue; host or cells: human polymorphonuclear leukocytes (PMNs)
T4 sequence (P08311 21-255): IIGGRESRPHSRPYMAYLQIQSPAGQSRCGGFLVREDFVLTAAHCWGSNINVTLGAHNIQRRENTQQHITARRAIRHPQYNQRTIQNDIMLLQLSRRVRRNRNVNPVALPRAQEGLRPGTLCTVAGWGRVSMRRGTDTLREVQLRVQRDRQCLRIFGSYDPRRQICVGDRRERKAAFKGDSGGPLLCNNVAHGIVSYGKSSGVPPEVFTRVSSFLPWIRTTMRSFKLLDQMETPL
Method: as §1, §2, §3

T3 sequence (P00747 581-810 limits assumed): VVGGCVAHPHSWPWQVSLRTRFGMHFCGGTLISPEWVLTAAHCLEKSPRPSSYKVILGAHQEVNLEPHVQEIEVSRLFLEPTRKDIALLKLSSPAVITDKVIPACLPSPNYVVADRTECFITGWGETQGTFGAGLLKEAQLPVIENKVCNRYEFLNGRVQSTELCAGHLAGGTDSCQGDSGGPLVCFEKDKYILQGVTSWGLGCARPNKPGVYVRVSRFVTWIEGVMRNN
T3 sequence (P00747 97-580 partner limits assumed): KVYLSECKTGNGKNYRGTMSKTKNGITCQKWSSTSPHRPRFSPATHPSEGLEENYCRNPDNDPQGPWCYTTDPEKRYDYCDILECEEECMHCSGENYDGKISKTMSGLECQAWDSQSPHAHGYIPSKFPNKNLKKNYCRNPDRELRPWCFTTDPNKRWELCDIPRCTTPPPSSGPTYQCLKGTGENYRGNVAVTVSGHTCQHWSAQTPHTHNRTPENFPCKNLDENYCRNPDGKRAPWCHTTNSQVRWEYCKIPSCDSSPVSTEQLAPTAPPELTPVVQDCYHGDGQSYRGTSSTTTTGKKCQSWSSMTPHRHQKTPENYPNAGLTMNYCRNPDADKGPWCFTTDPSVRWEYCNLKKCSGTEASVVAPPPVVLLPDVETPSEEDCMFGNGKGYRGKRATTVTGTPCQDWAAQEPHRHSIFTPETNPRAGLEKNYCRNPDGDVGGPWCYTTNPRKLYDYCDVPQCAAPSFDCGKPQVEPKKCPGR
T2 sequence (P00761 9-231): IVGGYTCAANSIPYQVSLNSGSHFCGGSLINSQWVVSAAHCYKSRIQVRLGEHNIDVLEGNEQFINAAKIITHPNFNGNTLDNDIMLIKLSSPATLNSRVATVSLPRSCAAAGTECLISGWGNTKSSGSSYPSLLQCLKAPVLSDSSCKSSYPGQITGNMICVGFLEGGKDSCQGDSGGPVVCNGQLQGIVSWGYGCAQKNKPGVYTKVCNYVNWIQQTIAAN

| Substance | Ki [1] | inhibition of neutrophil elastase [2] | Ki (Porcine trypsin) | inhibition of plasmin (Human plasmin) | inhibition of cathepsin G [3] | inhibitory effect on collagenase (collagenase) |
| --- | --- | --- | --- | --- | --- | --- |
| aprotinin(1-58, Val15) | – | – | – | – | – | inhibitory effect |
| KFN 1900: [R15K, D16A] analog of the human α3(VI) collagen Kunitz-type protease inhibitor domain, produced from yeast strain KFN-1900 | – | did not inhibit | 50 nM | weak inhibitors | did not inhibit | – |
| KFN 1901: [D16A] analog of the human α3(VI) collagen Kunitz-type protease inhibitor domain, produced from yeast strain KFN-1901 | – | did not inhibit | 355 nM | weak inhibitors | did not inhibit | – |

Further lines, with some results ahead:

| Ki [1] | inhibition of neutrophil elastase [2] | Ki (Porcine trypsin) | inhibition of plasmin (Human plasmin) | inhibition of cathepsin G [3] | Substance | inhibitory effect on collagenase (collagenase) |
| --- | --- | --- | --- | --- | --- | --- |
| 355 nM | – | – | – | – | [D16A]-α3(VI) Kunitz-type domain analog (from UniProt P12111) | – |
| 50 nM | – | – | – | – | [R15K, D16A]-α3(VI) Kunitz-type domain analog (from UniProt P12111) | – |
